In US20120172293A1 (Takeda / Millennium, published 2012):

Key:
[1] = molecular target: human Y2 receptor (human) (UniProt P49146); experiment: cell-based or functional assay
[2] = molecular target: human Y2 receptor (human) (UniProt P49146); experiment: RBA: displacement of [125I]-PYY from hY2R/CHO membranes

human Y2 receptor (human), sequence (P49146 whole entry): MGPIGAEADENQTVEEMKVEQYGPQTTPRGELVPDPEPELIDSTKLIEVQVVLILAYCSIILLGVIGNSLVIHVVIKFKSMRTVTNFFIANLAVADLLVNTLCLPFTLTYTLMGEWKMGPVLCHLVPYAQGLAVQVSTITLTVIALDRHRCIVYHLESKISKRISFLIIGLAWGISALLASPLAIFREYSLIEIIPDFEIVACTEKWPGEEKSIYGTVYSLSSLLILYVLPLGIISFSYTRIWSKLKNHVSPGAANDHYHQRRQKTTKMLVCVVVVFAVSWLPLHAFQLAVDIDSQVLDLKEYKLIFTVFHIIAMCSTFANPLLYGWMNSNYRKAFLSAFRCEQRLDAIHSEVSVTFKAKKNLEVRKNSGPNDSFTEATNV

Row | GBA EC50 Ratio ([35S]GTPγS binding) (EC50 compound/EC50 PYY(3-36)) [1] | IC50 Ratio (IC50 compound/IC50 PYY(3-36)) [2] | Substance
1 | 4 | 7.2 | Ac-[D-Pro24, Pya(4)26, Nal(2)27, Aib28,31, Lys30, Cha36]-PYY(23-36) (peptide)
2 | 11 | 17 | Ac-[D-Pro24, Pya(4)26, Ala(4Pip)27, Aib28,31, Lys30, Cha36]-PYY(23-36) former peak (peptide)
3 | 0.89 | 0.79 | Isobutanoyl-[D-Pro24, Pya(4)26, Cha27,36, Aib28,31, Lys30]-PYY(23-36) (peptide)
4 | 0.7 | 0.82 | (Tetrahydro-2H-pyran-4-ylmethyl)carbamoyl-[D-Pro24, Pya(4)26, Cha27,36, Aib28,31, Lys30]-PYY(23-36) (peptide)
5 | 0.82 | 0.82 | [(1S)-1-Carboxy-3-methylbutyl]carbamoyl-[D-Pro24, Pya(4)26, Cha27,36, Aib28,31, Lys30]-PYY(23-36) (peptide)
6 | 1.3 | 1.1 | Ac-[D-Pro24, Arg(Me)25, Pya(4)26, Cha27,36, Aib28,31, Lys30]-PYY(23-36) (peptide)

The remaining lines, values behind:

Row | Substance | GBA EC50 Ratio ([35S]GTPγS binding) (EC50 compound/EC50 PYY(3-36)) [1] | IC50 Ratio (IC50 compound/IC50 PYY(3-36)) [2]
7 | Ac-[D-Pro24, Pya(4)26, Cha27,36, Aib28,31, Lys(Hexyl)30]-PYY(23-36) (peptide) | 1.3 | 1
8 | Ac-[D-Pro24, Pya(4)26, Cha27,36, Aib28, Lys30, D-Iva31]-PYY(23-36) (peptide) | 1.6 | 0.55
9 | (2-Carboxyethyl)carbamoyl-[D-Pro24, Pya(4)26, Cha27,36, Aib28,31, Lys30]-PYY(23-36) (peptide) | 0.94 | 1.3
10 | (cis-2,6-Dimethylmorpholin-4-yl)carbonyl-[D-Pro24, Pya(4)26, Cha27,36, Aib28,31, Lys30]-PYY(23-36) (peptide) | 0.65 | 0.91
11 | 4-Imidazolecarbonyl-[D-Pro24, Pya(4)26, Cha27,36, Aib28,31, Lys30]-PYY(23-36) (peptide) | 1.1 | 0.76
12 | Ac-[Dap22, D-Pro24, Pya(4)26, Cha27,36, Aib28,31, Lys30]-PYY(22-36) (peptide) | 1.6 | 1.2
